Patent publication US11021533

Key:
[1] = target: ZIKV strain H/PF/2013 (French Polynesia, 2013) virus (Zika virus, strain H/PF/2013); assay: cell-based or functional assay
[2] = target: all ZIKV strains tested (MR 766, Dakar 41519, Malaysia P6740, H/PF/2013, Brazil Paraiba 2015); assay: cell-based or functional assay

| Binder | FRNT50 (focus reduction neutralization test on Vero cells) [1] [ng/mL] | FRNT50 (focus reduction neutralization test on Vero cells) [2] [ng/mL] |
| --- | --- | --- |
| ZIKV-88 (antibody, V domains shown) VH: QVQLLESGGGVVQPGRSLRLSCVASGLTFSTSAMHWVRQAPGKGLEWVAVISYDGSYKFYADSVRDQFTISRDNSKTTLYLQMDGLTPEDTAVYYCARGYNDDSSGSYWYFDLWGRGTLVTVSS VL: QSVLTQPPSVSAAPGQKVTMSCSGSSSNIGSNFVSWYQQLPGTAPKVLIFDNNQRPSGIPDRFSGSKSGTSATLAITGLQPGDEAVYHCGTWDSSLTFAVFGGGTKLTVL | 420 |  |
| ZIKV-117 (antibody, V domains shown) VH: QVQLVESGGGVVRPGGSLRLSCAASGFTFKNYGIHWVRQAPGKGPEWVAFVRYDGNNKYYADSVKGRFTISRDNAKNTLSLQMNSLRVEDTAVYFCARDPETFGGFDYWGQGTLVTVSS VL: ETVMTQSPATLSVSPGERGTLSCRASESVSSNLAWYQQKPGKAPRLLIYGASTRATGIPDRFSGSGSGTEFTLTISSLQSEDFAVYYCQQYYYSPRTFGQGTKVEVK |  | 5 to 25 |
